Measurements as given in publication PMC8441438, “Dynamic regulation of mitotic ubiquitin ligase APC/C by coordinated Plx1 kinase and PP2A phosphatase action on a flexible Apc1 loop” (The EMBO Journal, 2021).
One block for each binder: values may come before it. Non-standard residues stand in square brackets, D forms with d. pT = C[C@@H](OP(=O)(O)O)[C@H](N)C(=O)O; pS = N[C@@H](COP(=O)(O)O)C(=O)O

B1: Plx1-PBD WT (polo-box domain of Plx1) (domain or fragment, Xenopus laevis, UniProt P70032 362-598, looked up)
chain: EPADCYLSEMLQQLTCLNAVKPSERALIRQEEAEDPASIPIFWISKWVDYSDKYGLGYQLCDNSVGVLFNDSTRLIMYNDGDSLQYIERNNTESYLNVRSYPTTLTKKITLLKYFRNYMSEHLLKAGANTTPREGDELARLPFLRTWFRTRSAIILHLSNGTVQINFFQDHTKIILCPLMAAVSYIDEKREFRTYKLSLIQEFGCCKELASRLRYARTMVEKLQSSKSAVAHVKASA
notes: Plx1, Xenopus laevis, polo-box domain, amino acids 362-598; 3xFlag is PreScission-cleavable, His6 TEV-cleavable; cleavage is not reported; also called WT Plx1-PBD; source: E. coli BL21-CodonPlus (DE3), purified (Ni-NTA agarose)
B3: MBP-fused Apc1-loop^500 WT fragment (domain or fragment, Xenopus tropicalis, UniProt Q08D52 515-584, looked up)
chain: GLAAPSLGMSNPMPRPSTPLESISTPAKPLNKHLAPMDEAGMLSPVPELRDSTRLHESTYLDDCTFHQFG
notes: Apc1 (APC/C subunit 1), Xenopus tropicalis, loop^500, residues 515-584; Added unphosphorylated; becomes phosphorylated at CDK sites T532, T539 and S558 when incubated in anaphase egg extracts; MBP is PreScission-cleavable and His6 TEV-cleavable; also called MBP-Apc1-loop^500; CDK^- Apc1-loop^500; source: recombinant, purified as described previously (Fujimitsu & Yamano, 2020); not shown: MBP, …

Assays:
Conditions in all cases: both partners purified
[1] = target: B3; experiment: pull-down; MBP-fused Apc1-loop^500 on amylose beads incubated in anaphase extracts at 23°C for 1 h, then purified Plx1-PBD (10 µg or indicated amounts) added to the extract for 15 min; bound proteins by SDS-PAGE and Coomassie staining
[2] = target: B1; experiment: pull-down; purified proteins only: MBP-fused Apc1-loop^500 incubated with or without purified Cdk2/cyclin A (30°C, 2 h, 1 mM ATP), bound to amylose beads, incubated with Plx1-PBD at 4°C (on ice) for 10 min in XB^CSF with 0.01% NP-40 without EGTA; Coomassie staining
[3] = target: B1; experiment: pull-down; MBP-fused Apc1-loop^500 on amylose beads incubated in anaphase extracts at 23°C for 1 h, then purified Plx1-PBD (10 µg or indicated amounts) added to the extract for 15 min; bound proteins by SDS-PAGE and Coomassie staining
[4] = target: B1; experiment: pull-down; dissociation assay: Plx1-PBD/MBP-Apc1-loop^500 complexes formed in anaphase extracts, isolated on amylose beads and incubated with (78 nM) or without purified PP2A-B56γ at 23°C for 30 or 60 min; PBD left on the beads by Coomassie staining

Binder: B1
stoichiometry N [1]: > 1 Plx1-PBD per Apc1-loop^500

binding result [2]: binds
B2: MBP-fused Apc1-loop^500 T532A phosphorylated by Cdk2/cyclin A (domain or fragment, Xenopus tropicalis, UniProt Q08D52 515-584, looked up)
chain: GLAAPSLGMSNPMPRPSAPLESISTPAKPLNKHLAPMDEAGMLSPVPELRDSTRLHESTYLDDCTFHQFG
modifications: also: MBP fusion, phosphorylated in vitro by Cdk2/cyclin A, sites not given here
notes: Apc1, Xenopus tropicalis, loop^500, residues 515-584; source: recombinant, purified, then phosphorylated in vitro with purified Cdk2/cyclin A; not shown: MBP, N-terminal, kept

Binder: B3
binding result [3]: binds

binding result [4]: binds
B4: MBP-fused Apc1-loop^500 E562A (domain or fragment, Xenopus tropicalis, UniProt Q08D52 515-584, looked up)
chain: GLAAPSLGMSNPMPRPSTPLESISTPAKPLNKHLAPMDEAGMLSPVPALRDSTRLHESTYLDDCTFHQFG
notes: Apc1, Xenopus tropicalis, loop^500, residues 515-584; source: recombinant, purified as described previously (Fujimitsu & Yamano, 2020); not shown: MBP, N-terminal, kept

binding result [2]: binds
B5: MBP-fused Apc1-loop^500 WT phosphorylated by Cdk2/cyclin A (domain or fragment, Xenopus tropicalis, UniProt Q08D52 515-584, looked up)
chain: GLAAPSLGMSNPMPRPSTPLESIS[pT]PAKPLNKHLAPMDEAGML[pS]PVPELRDSTRLHESTYLDDCTFHQFG
modifications: not fully specified (residue 18, N-terminus); also: MBP fusion, pT532 only in upper of two bands (partial), phosphorylated in vitro by Cdk2/cyclin A
notes: Apc1, Xenopus tropicalis, loop^500, residues 515-584; After phosphorylation the protein runs as two bands; only the upper one carries pT532; also called Apc1-loop^500 (CDK^+); phosphorylated MBP-Apc1-loop^500; source: recombinant, purified, then phosphorylated in vitro with purified Cdk2/cyclin A at 30°C for 2 h; not shown: MBP, N-terminal, kept
